According to patent publication US20110262445A1 (CEPHALON AUSTRALIA, published 2011):
Residue numbers refer to the chain shown, from its start. In names and notes the source's numbering stands.

B1: human IL-12p40 (ligand)
chain: IWELKKDVYVVELDWYPDAPGEMVVLTCDTPEEDGITWTLDQSSEVLGSGKTLTIQVKEFGDAGQYTCHKGGEVLSHSLLLLHKKEDGIWSTDILKDQKEPKNKTFLRCEAKNYSGRFTCWWLTTISTDLTFSVKSSRGSSDPQGVTCGAATLSAERVRGDNKEYEYSVECQEDSACPAAEESLPIEVMVDAVHKLKYENYTSSFFIRDIIKPDPPKNLQLKPLKNSRQVEVSWEYPDTWSTPHSYFSLTFCVQVQGKSKREKKDRVFTDKTSATVICRKNASISVRAQDRYYSSSWSEWASVPCS
notes: p40 monomer; also called p40 subunit
B2: human IL-23 (ligand)
chain 1: B1 chain
chain 2: RAVPGGSSPAWTQCQQLSQKLCTLAWSAHPLVGHMDLREEGDEETTNDVPHIQCGDGCDPQGLRDNSQFCLQRIHQGLIFYEKLLGSDIFTGEPSLLPDSPVGQLHASLLGLSQLLQPEGHHWETQQIPSLSPSQPWQRLLLRFKILRSLQAFVAVAARVFAHGAATLSP
notes: Recombinant (Ebioscience); HIS-tagged in flow cytometry, biotinylated in some assays; also called hIL-23; rhIL-23
B3: human IL-12 (ligand)
chain 1: B1 chain
chain 2: RNLPVATPDPGMFPCLHHSQNLLRAVSNMLQKARQTLEFYPCTSEEIDHEDITKDKTSTVEACLPLELTKNESCLNSRETSFITNGSCLASRKTSFMMALCLSSIYEDLKMYQVEFKTMNAKLLMDPKRQIFLDQNMLAVIDELMQALNFNSETVPQKSSLEEPDFYKTKIKLCILLHAFRIRAVTIDRVMSYLNAS
notes: Recombinant (Peprotech); FLAG-tagged IL-12 in the flow cytometry assays, biotinylated in the IL-12Rβ2 assay; also called hIL-12
B4: scFv CP-A6 (scFv)
scFv: QVQLVQSGAEVKKPGASVKVSCKASGYTFTDYYLHWVRQAPGQGLEWMGWIDPENGDTEHAPKFQGRVTMTTDTSTSTAYMELRSLRSDDTAVYYCNANKELRYFDVWGQGTMVTVSSGGGGSGGGGSGGGGSEIVMTQSPATLSVSPGERATLSCRASQSISINLHWYQQKPGQAPRLLIYFASQSISGIPARFSGSGSGTEFTLTISSLQSEDFAVYYCQQSNSFPLTFGGGTKVEIKR
notes: scFv-80 variant: VH Y59H; not shown: proprietary C-terminal FLAG tag
B5: scFv CU-A6 (scFv)
scFv: B4 scFv with F29L, H60Y, T112A, S196F
notes: scFv-80 variant: VH F29L, T107A; VL S63F; not shown: proprietary C-terminal FLAG tag
B6: Antibody 176 (antibody, human IgG1, kappa)
heavy: not shown
light: DIQMTQSPSSVSASVGDRVTITCRASQSISINLHWYQQKPGKAPKLLIYFASQSISGVPSRFSGSGSGTDFSLTINSLQTEDFATYYCQQSNSFPLTFGGGTKVEIKRTVAAPSVFIFPPSDEQLKSGTASVVCLLNNFYPREAKVQWKVDNALQSGNSQESVTEQDSKDSTYSLSSTLTLSKADYEKHKVYACEVTHQGLSSPVTKSFNRGEC
B7: Antibody 178 (antibody, human IgG1, kappa, V domains shown)
VH: EVQLVQSGAEVKKPGATVKISCKASGYALSDYYLHWVRQAPEKGLEWMGWIDPENGDTEYAPKFQGRVTITADTSTDTGYLELSSLRSEDTAVYYCAANKELRYFDVWGQGTLVTVSS
VL: DIQMTQSPSSVSASVGDRVTITCRASQSISINLHWYQQKPGKAPKLLIYFASQSISGVPSRFSGSGSGTDFSLTINSLQTEDFATYYCQQSNSFPLTFGGGTKVEIKR

Tests used:
[1] = biological target: T1, IL-12Rβ1 on stably transfected Jurkat cells (human, UniProt P42701 24-662); assay: flow cytometry; binding blocked by Antibody 202.1
T1 construct: whole, on cells; Cell line negative for IL-12Rβ2 and IL-23R; also called IL-12Rβ1 Jurkat cell line
Method in brief: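 Jurkat cells stably transfected with IL-12Rβ1 were used. FLAG- or HIS-tagged cytokine at 250 ng/ml was preincubated with antibody (10 to 0.01 μg/ml, half-log dilutions) for one hour at 37° C, then cells at 10⁶/ml were added for a further hour. Cells were washed in PBS/10% FBS. Cell-bound cytokine was detected with phycoerythrin anti-HIS or FITC anti-FLAG on a Beckman-Coulter Quanta, and blocking of receptor binding was the read-out.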

[2] = biological target: B3; assay: SPR, purified scFv captured via FLAG
Description: (§1) A number of the scFv variants presented in TABLE 4 were selected for full characterization of binding kinetics, encompassing a broad range of mutation profiles and binding affinities. Large-scale protein expressions were carried out for each scFv. The expressed scFvs were purified as monomeric proteins and tested for binding against IL-12 and IL-23 by SPR (TABLE 5).
(§2) Purified scFvs were subjected to full kinetic characterization using a BIAcore T100 biosensor (GE Healthcare). Approximately 10,000 RU of the proprietry FLAG-specific capture molecule was immobilized on a CM5 Series S Sensor chip, using standard amine coupling chemistry in flow cells (FC) 1 and FC2 (or alternatively FC3 and FC4) of the BIAcore T100 Biosensor. The running buffer used was HBS-EP+ (BIAcore) and interactions measured at 30° C. or 35° C. to promote differentiation of scFvs with very similiar kd values. Peak purified FLAG-tagged scFvs (prepared as described in the previous paragraph) were diluted to 10 nM in running buffer, and captured on FC2 at a flow rate of 10 μl/min in order to capture 50 RU of scFv (typically 60 sec was sufficient to capture this level of tagged scFv). After an appropriate stabilization period, the target, IL-12 or IL-23, were passed over FC1 and FC2 at a flow rate of 60 μl/min at concentrations ranging from 81 nM to 0.13 nM (using a five-fold dilution of IL-12) and 81 nM to 1 nM (using a three-fold dilution of IL-23). The contact time for association was 180 sec and dissociation measured for 10 mins for the highest concentration and 300 sec for all other concentrations in the series. The sensorgram data from FC2 was subtracted from FC1 and a buffer only control. The curves were fitted using a 1:1 Langmuir equation to generate the kₐ, kd and KD values.

[3] = biological target: B2; assay: SPR, purified scFv captured via FLAG
Description: as §1, §2

[4] = biological target: B2; assay: SPR screen, crude scFv captured via FLAG
Description: Approximately 6500 individual scFvs recovered from the ribosome display reactions were expressed and screened for binding against IL-23 using a high-throughout SPR assay. The variants were ranked according to the kd and the best variants were sequenced at the nucleic acid level.
High-throughput SPR screening was conducted using a BIAcore A100 biosensor (GE Healthcare). Approximately 10 000 RU of the proprietary FLAG-specific capture molecule was immobilized on a CM5 Series S Sensor chip, using standard amine coupling chemistry on Spots 1 & 5 (outer spots) and 3,000RU to Spots 2 & 4 (inner spots) in each of the four flow cells of the BIAcore A100 Biosensor. The running buffer used was HBS-EP+ (BIAcore) and all interactions measured at 25° C. Crude periplasmic preparations of FLAG-tagged scFvs (prepared as described in the previous paragraph), were diluted two-fold in running buffer before capturing at a flow rate of 5u1/min for 60 sec. Approx. 100RU (on outer spots) and 50RU (on inner spots) of tagged scFv was captured. Following a 2 min stabilization period, IL-23 was passed over all spots of all four flow cells simultaneously at a flow rate of 30u1/min for 120 sec and dissociation monitored for 200 sec. Generated sensorgrams were referenced against the unmodified spot 3 of each flow cell, and fitted using a 1:1 Langmuir equation with R1 set to local to account for varying ligand densities to generate the kₐ, kd and KD values.

[5] = biological target: B2; assay: SPR, purified scFv captured via FLAG; LOD estimated 1 × 10^-5 s^-1
Description: as §1, §2

[6] = biological target: B3; assay: ELISA
Method in brief: (§3)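 Binding values are absorbance readings. After cytokine (1 μg/mL, carbonate buffer pH 9.6) was coated onto Maxisorp plates overnight at 4° C and the plates were blocked with 1% BSA in PBS, antibody titrations were bound for 1 hour at 25° C and detected with HRP-linked goat anti-human IgG or anti-murine immunoglobulin (1:2000). Color from TMB, stopped with 1M HCl, was read at 450 nm with 620 nm as reference.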

[7] = biological target: B2; assay: ELISA
Method in brief: as §3

B1: binds [1].

B2: binds [1].

B3: binds [1].

B4 was tested, and the Kd [2] was 0.061 nM, the koff [2] was 0.00012 s⁻¹ and the kon [2] was 2e+06 M⁻¹ s⁻¹. For the same binder, the kon [3] was 310000 M⁻¹ s⁻¹, the koff [4] was 0.00019 s⁻¹ and the koff [5] was less than 1e-05 s⁻¹.

B5 gave a Kd [2] of 0.048 nM, a koff [2] of 9.7e-05 s⁻¹ and a kon [2] of 2e+06 M⁻¹ s⁻¹. The kon [3] was 300000 M⁻¹ s⁻¹, the koff [4] was 0.00019 s⁻¹ and the koff [5] was less than 1e-05 s⁻¹.

B6: binds [6]; binds [7].

B7: binds [6]; binds [7].
